How the values were obtained:
S100A2 = experiment: FP
S100A4 [1] = experiment: FP
S100A4 [2] = experiment: ITC
S100A7 = experiment: FP
S100A15 = experiment: FP
S100A14 = experiment: FP
S100G = experiment: FP
S100A3 = experiment: FP
S100P = experiment: FP
S100A6 = experiment: FP
S100A5 = experiment: FP
S100A1 = experiment: FP
[3] = target: C-ERMAD (516-560 and 516-586) peptide (UniProt P15311); experiment: FP
S100A11 = experiment: FP

C-ERMAD (516-560 and 516-586) peptide (from UniProt P15311 516-586), sequence (P15311 516-586): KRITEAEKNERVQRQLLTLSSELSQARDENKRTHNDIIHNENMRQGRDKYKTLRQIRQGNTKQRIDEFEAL
p53 (1-60; 17-53) peptide, sequence (P04637 1-60): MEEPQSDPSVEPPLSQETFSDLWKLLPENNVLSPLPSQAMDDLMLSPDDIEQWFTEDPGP
C-ERMAD (516-560 and 516-586) peptide (UniProt P15311), sequence (P15311 516-586): as the sequence (P15311 516-586) above

Substance | Kd (S100A2) [µM] | Kd (S100A4 [1]) [µM] | Kd (S100P) [µM] | Kd (S100A6) [µM] | other results
C-ERMAD (516-560 and 516-586) peptide (from UniProt P15311 516-586) | 5.4 | 6.1 | – | – | Kd (S100A4 [2]): 35 µM
FOR20 | 0.27 | 2 | 1.2 | 0.007 | Kd (S100A7): 5.9 µM; Kd (S100A15): 17 µM; Kd (S100A14): 63 µM; Kd (S100G): 3.8 µM; Kd (S100A3): 29 µM; Kd (S100A5): 1.9 µM; Kd (S100A1): 0.5 µM
MK2 | 4.5 | – | 2.7 | – | Kd (S100A1): 15 µM
MNK1 | 18 | 24 | 2.5 | 6.7 | –
S100A2 | – | – | – | – | Kd [3]: 15 µM
S100A4 | – | – | – | – | Kd [3]: 11 µM
p53 (1-60; 17-53) peptide (from UniProt P04637 1-60) | 5.2 | 2.1 | – | 2.2 | Kd (S100A11): 12 µM; Kd (S100A3): 7.7 µM; Kd (S100A5): 67 µM

From article doi:10.1101/718155
